Assay: label from the status in PepcDB records
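Also: failed if final PepcDB status was selected cloned or expressed and not failed if soluble or beyond.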

In the case of “MRLEGEGRSARAGQNLSRAGSARRGAPRDLSMNNLTELQPGLFHHLRFLEELRLSGNHLSHIPGQAFSGLYSLKILMLQNNQLGGIPAEALWELPSLQSLDLNYNKLQEFPVAIRTLGRLQELGFHNNNIKAIPEKAFMGNPLLQTIHFYDNPIQFVGRSAFQYLPKLHTLSLNGAMDIQEFPDLKGTTSLEILTLTRAGIRLLPSGMCQQLPRLRVLELSHNQIEELPSLHRCQKLEEIGLQHNRIWEIGADTFSQLSSLQALDLSWNAIRSIHPEAFSTLHSLVKLDLTDNQLTTLPLAGLGGLMHLKLKGNLALSQAFSKDSFPKLRILEVPYAYQCCPYGMCASFFKASGQWEAEDLHLDDEESSKRPLGLLARQAENHYDQDLDELQLEMEDSKPHPSVQCSPTPGPFKPCEYLFESWGIRLAVWAIVLLSVLCNGLVLLTVFAGGPVPLPPVKFVVGAIAGANTLTGISCGLLASVDALTFGQFSEYGARWETGLGCRATGFLAVLGSEASVLLLTLAAVQCSVSVSCVRAYGKSPSLGSVRAGVLGCLALAGLAAALPLASVGEYGASPLCLPYAPPEGQPAALGFTVALVMMNSFCFLVVAGAYIKLYCDLPRGDFEAVWDCAMVRHVAWLIFADGLLYCPVAFLSFASMLGLFPVTPEAVKSVLLVVLPLPACLNPLLYLLFNPHFRDDLRRLRPRAGDSGPLAYAAAGELEKSSCDSTQALVAFSDVDLILEASEAGRPPGLETYGFPSVTLISCQQPGAPRLEGSHCVEPEGNHFGNPQPSMDGELLLRAEGSTPAGGGLSGGGGFQPSGLAFASHV”, the protein production is reported as “failed”.

In the case of “MVPAPEAIRQALQERLLARLDHPDPLYRDLLQDYPRRGGKMLRGLLTVYSALAHGAPLEAGLEAATALELFQNWVLVHDDIEDGSEERRGRPALHRLHPMPLALNAGDAMHAEMWGLLAEGLARGLFPPEVLLEFHEVVRRTAYGQHLDLLWTLGGTFDLRPEDYFRMVAHKAAYYTAVAPLRLGALLAGKTPPAAYEEGGLRLGTAFQIVDDVLNLEGGEAYGKERAGDLYEGKRTLILLRFLEEAPPEERARALALLALPREAKPEAEVGWLLERLLASRALAWAKAEAKRLQAEGLALLEAAFQDLPGKEALDHLRGLLAALVERRA”, the protein production is reported as “not failed”.

In the case of “DPKEGVQYEVLSTSLENDGMAPVTEVFALSCGHCRNMENFLPVISQEAGTDIGKMHITFNQSAHIASMFYYAAEMQVDGAPDHAFMEDLFAATQMGEGTTLTEQQEAYSKAFTSRGLVSPYDFNEEQRDTLIKKVDNAKMLSEKSGISSVPTFVVNGKYNVLIGGHDDPKQIADTIRYLLEK”, the protein production is reported as “not failed”.

For “MFLGEDYLLTNRAAVRLFNEVKDLPIVDPHNHLDAKDIVENKPWNDIWEVEGATDHYVWELMRRCGVSEEYITGSRSNKEKWLALAKVFPRFVGNPTYEWIHLDLWRRFNIKKVISEETAEEIWEETKKKLPEMTPQKLLRDMKVEILCTTDDPVSTLEHHRKAKEAVEGVTILPTWRPDRAMNVDKEGWREYVEKMGERYGEDTSTLDGFLNALWKSHEHFKEHGCVASDHALLEPSVYYVDENRARAVHEKAFSGEKLTQDEINDYKAFMMVQFGKMNQETNWVTQLHIGALRDYRDSLFKTLGPDSGGDISTNFLRIAEGLRYFLNEFDGKLKIVLYVLDPTHLPTISTIARAFPNVYVGAPWWFNDSPFGMEMHLKYLASVDLLYNLAGMVTDSRKLLSFGSRTEMFRRVLSNVVGEMVEKGQIPIKEARELVKHVSYDGPKALFFG”, the protein production was “not failed”.

For “MRDVIIALLPATIFGIINFEINAMILILTCVVSCVLFEWLYQKMMNRKVTIYDLSAVVTGLLLALNLSPDVPIWMAILGSAFAIIIVKQLFGGLGFNFMNPALGARCFLLISFAGRMTSFSYDGVTTATPLAVLKNTGDLANVNVLHMFLGNIPGTIGETSVVCILVGAAYLLIRRVIKPVIPLTYIGTFAVLIMIYALASGRGFDLTFLAAHLCGGGLMLGAFFMATDYVTSPITPAGKVVFGVILGILTFCFRIYGGSAEGVSYAIIFSNLLVPLIERWTQPKSFGEGAELAAQGDTSGTKSKMDTRSIIIATIAIMIITVIAGFALAYVYKVTKDPIAVTEQKAKEEAYKAVFGDADSFDSYSDFDADAAAKVLKDAGYNADIDEVVEAKNSDGSVLGYVVTVTSHEAYSGDLQLAMGVRTDGTTNGISFLSLSETAGLGMEADTDSFKSQFAGKKVDKFKYTKSGATVDEEIDALSGATITTNAVTNAVDAGLEYVKSINGGAADPSNALDETDASNGGDK”, the protein production was “failed”.

With “MTANAYVRARIDQTLKDDATAVLDRLGLTVSDVMRMMLTRIAREKALPIELTQPNAETLAAIEEARAIAAAGRNRFGTSEALFEALDAGKRLEHHHHHH” the protein production was “not failed”.

In the case of “MHVLNILWVVFGIGLMLVLNLKFKINSMVALLVAALSVGMLAGMDLMSLLHTMKAGFGNTLGELAIIVVFGAVIGKLMVDSGAAHQIAHTLLARLGLRYVQLSVIIIGLIFGLAMFYEVAFIMLAPLVIVIAAEAKIPFLKLAIPAVAAATTAHSLFPPQPGPVALVNAYGADMGMVYIYGVLVTIPSVICAGLILPKFLGNLERPTPSFLKADQPVDMNNLPSFGVSILVPLIPAIIMISTTIANIWLVKDTPAWEVVNFIGSSPIAMFIAMVVAFVLFGTARGHDMQWVMNAFESAVKSIAMVILIIGAGGVLKQTIIDTGIGDTIGMLMSHGNISPYIMAWLITVLIRLATGQGVVSAMTAAGIISAAILDPATGQLVGVNPALLVLATAAGSNTLTHINDASFWLFKGYFDLSVKDTLKTWGLLELVNSVVGLIIVLIISMVA”, the protein production is reported as “failed”.

In the case of “MFKTILLAYDGSEHARRAAEVAKAEAEAHGARLIVVHAYEPVPDYLGEPFFEEALRRRLERAEGVLEEARALTGVPKEDALLLEGVPAEAILQAARAEKADLIVMGTRGLGALGSLFLGSQSQRVVAEAPCPVLLVR”, the protein production is reported as “not failed”.

With “MSQSQLLQKLASRLPLGVCVVDEHYQIIYWNEFFTDRLPTAKSDTQENNLLTLFPEAAKFLQKKINSVFVLNNASFSYWEHRPHVFDFSSSRPITGEETAMYQNIEFFPLDIEDHQVKTVCLIVQDVTELASYYQAQKCLSEQLEQEHTALSLLNKKLEAAQNQLLQSEKMVAIGQLAAGVAHEINNPIGFVNSNLQSLQDYNNKLLKLLNFYQKLTHKIGSVPYFTLEQDMLKRYQFEFICSDLPDLIRESIEGLDRVAVIVKSLKSFSHVDSSEWQYANVIEGIENTLKIAANQIKYKAVVLRNFQDNLPELYCQPMQLNQVFLNLLVNAAQAIEERGEISIDVSASDAEFIIVIRDTGSGIAASDLRKIFEPFYTTKLVGTGTGLGLSLSYSIVQKHKGEIKVSSVLGEGTAFTVILPILSPEDVA” the protein production was “failed”.

For “MNTKPVLVILGPTASGKTELAFRIARQTGGEIISADSRQIYRGMDIGTAKPPRWMLDEVKHHFIDKKEIGEPFSAGDFAEQAAEKIRELHQRGITPVVAGGSTLYLEGLLKGFAELPPADPEIRAQLTRELERHGAEALYRRLEALDPEQAKTLDPTKTQRLIRSLEIIEISGTTVTALQSKTPGPPTGINFTVIGLDLPRELLYERINQRTSAMIQAGLEAEARYLFDKFRDEWRSKNLNALATVGYRELFEHFEELHDLDTAVSLIAQHTRNYAKRQLTFFRNRLDVEWVKAPLDEAEIEALVEFFSTRQDDSVPHSPIAIAKKQNA”, the protein production was “failed”.

With “MIRFYMSLSVVKHTILYLCFIFLLLYLKKRYPDNVIIGFFLKIRWCFINSMLHLHFIAIWIAGYRNRCSNSSWNFGYFGCCVETQAKVGRTATNLLLTES” the protein production was “failed”.

With “MNFYWFDAFILGFTLLLGLKGIINGLIKEIFGLLGIIGGVFIASKYATQAAEFIQSTFYKIENQSLAGFAGFLAILIIFWIVCLLVGNFLSRLIKLSGLGFLDRIGGFIFGGAKIFLIFAILVFCVARIDFLNDKLDNFAKNSYTLNLLKETGSFIMNQPLTENSLDHASEKLQDIVSDLNNTQKGE” the protein production was “failed”.

With “MYLCGSNQSRKETLENKRYNNVEEWANTLSHGAGILLGVIAGYFLLAKAAAGAEPKWAVACVTVYLFGMLSSYVSSTWYHGSRPGKLKELLRKFDHGAIYLHIAGTYTPFTLLVMRHAGGWGWGIFSFVWLSAIVGFILSFKKLKEHSNLETACYIAMGACILVAMKPLMDHLAEMGAGPAFWWLIGGGVSYIIGAVFYSLRKPYMHATFHLFCLGGSIGHIIAIWLIL” the protein production was “failed”.

In the case of “MQDIHFRRHYVRHLPKEVSQNDIIKALASPLINDGMVVSDFADHVITREQNFPTGLPVEPVGVAIPHTDHKYVRQNAISVGILAEPVNFEDMGGEPDPVPVRVVFMLALGESNKQLNVLGWIMDVIQDEDFMQQLLVMNDDEIYQSIYTRISERGEV”, the protein production is reported as “not failed”.

In the case of “HQQQRSVMTEEYKVPDGMVGFIIGRGGEQISRIQQESGCKIQIAPDSGGLPERSCMLTGTPESVQSAKRLLDQIVEKGR”, the protein production is reported as “not failed”.

For “MMDYLITQNGGMVFAVLAMATATIFSGIGSAKGVGMTGEAAAALTTSQPEKFGQALILQLLPGTQGLYGFVIAFLIFINLGSDMSVVQGLNFLGASLPIAFTGLFSGIAQGKVAAAGIQILAKKPEHATKGIIFAAMVETYAILGFVISFLLVLNA”, the protein production was “not failed”.

For “MSEFEGWIKWLEPVFLLWKPEDPGYERPAYRDWTKEEDEPKYSPEKELALLDKQILASDGFDIDFTHFRCVFNYHLAYLDSHEFVDEPETTRDLLERLSRKALDDYNQESVVKANFHFCCAIMFLITFEVVDPYDNLIKLFQTRVRHAEDIVTEYVFCRPKPNQGVECIGVKNNDGKDVQTNVKEQEIPCMYGWFLRVITITFTLQIGVGASICHKE”, the protein production was “failed”.

With “MQLKSRVFIVTGASSGLGAAVTRAGSGGRDSARAGPEAASGGRACRSSARRCASEMPTRMRPTPPPLAFAKQEFGHVHGLVNCAGTAPGEDSRQERPARTGQFRPHGRRQPDRHSTYGLPPRSCRRESRTPTASGVIVNTASIAAFDGQIGQAAYAAEGRRRRPDASGRARARAFRNSRRPLRPASSIRRWPACLRMFRMRAASVPFPPRLGRAEEYAALVKHIREYDAQWRGHPPRRGFAHGAPV” the protein production was “not failed”.

For “MTRRTAFFFDELCLWHAAGPHALTLPVGGWVQPPAAAGHAESPETKRRLKSLLDVSGLTARLQLRSAPPASDEDLLRVHPAHYLERFKALSDAGGGSLGQDAPIGPGSYEIARLSAGLAIAALDAVLAGEADNAYSLSRPPGHHCLPDQAMGFCFFANIAVAIEAAKARHGVERVAVLDWDVHHGNGTQAIYYRRDDVLSISLHQDGCFPPGYSGAEDIGEDRGRGFNLNVPLLPGGGHDAYMQAMQRIVLPALERFRPQLIVVASGFDANAVDPLARMQLHSDSFRAMTAMVRDAAERHAGGRLVVVHEGGYSEAYVPFCGLAVIEELSGVRSAVRDPLRDFIELQQPNAAFRDFQRQRLEELAAQFGLCPAQPLQAAR”, the protein production was “failed”.

For “DEWTDVKKVMALGFFDGVHLGHQAVIKQAKQIAEEKGLQTAVLTFDPHPSVVLSNIRKQVKYLTPLEDKAEKMANLGVDIMYVVRFTTQFSELSPRAFVDNYLVALNVKHVVAGFDYSYGKKGEGKMTELENYANGRFEVTIVDKQTAASDKISSTNIRRAITEGELEEANQLLGYP”, the protein production was “not failed”.

In the case of “MAMVFCRGCAKEIHETALNCPQCGASQFPATPVKQLQENGSPWMAITSLVLGILCSLALFDDGEWDLETIVGLGMCSVAGLALGIVSINKKMPGYGIAIAGTVLSAVSLLVFFGLIVN”, the protein production is reported as “failed”.

In the case of “MSLSSKLRLQLDAHASIHENVRRLLQFTTSIMEANEEGIRKDIDSEFLHDFRVAIRRSRSILRLLNGVFDPEKTAWMLAGLRELGKRTNDLRDSDVYLLRREEYTSLLPPSLRPALDPFFSDLEADKRLHHRQFCRYLTGREYSGFMTSLKEFIAEGELPDPETAPLAAEPTGDVAAKTIRKALKKVLVHGRRTGSETSDAELHELRIDCKKLRYLLEFFASLFPPKATAQVLRQMKTLQDNLGTFVDLTVQMEFLQSRLETIPADRGGISEAAAIGGLLTTLYRKREKVREHFHEIFSGFDSNETGELFDELLTGLAEGHHHHHH”, the protein production is reported as “not failed”.

With “QTVNHELQSKVSELSEANNDMKNLLNSTDIATLFLDDSLNIRRFTTRTASIIKLIASDIGRPITDIVTDLHYPALADDAQEVLRTLIFREKQVSANNDRWFSVKIMPYRTQENKIVGLVITFSDITTSKKLEA” the protein production was “failed”.

Reference: a protein production outcome set (Wang et al. 2014)
